# Laboratory results taken from article PMC10104587 (Proceedings of the National Academy of Sciences of the …, 2023).
# B1: CNGB1 subunit of the bovine rod CNG channel (natural protein)
# chain: MLGWVQRVLPQPPGTPQKTKQEEEGTEPEPELEPKPETAPEETELEEVSLPPEEPCVGKEVAAVTLGPQGTQETALTPPTSLQAQVSVAPEAHSSPRGWVLTWLRKGVEKVVPQPAHSSRPSQNIAAGLESPDQQAGAQILGQCGTGGSDEPSEPSRAEDPGPGPWLLRWFEQNLEKMLPQPPKISEGWRDEPTDAALGPEPPGPALEIKPMLQAQESPSLPAPGPPEPEEEPIPEPQPTIQASSLPPPQDSARLMAWILHRLEMALPQPVIRGKGGEQESDAPVTCDVQTISILPGEQEESHLILEEVDPHWEEDEHQEGSTSTSPRTSEAAPADEEKGKVVEQTPRELPRIQEEKEDEEEEKEDGEEEEEEGREKEEEEGEEKEEEEGREKEEEEGEKKEEEGREKEEEEGGEKEDEEGREKEEEEGRGKEEEEGGEKEEEEGRGKEEVEGREEEEDEEEEQDHSVLLDSYLVPQSEEDRSEESETQDQSEVGGAQAQGEVGGAQALSEESETQDQSEVGGAQDQSEVGGAQAQGEVGGAQEQDGVGGAQDQSTSHQELQEEALADSSGVPATEEHPELQVEDADADSRPLIAEENPPSPVQLPLSPAKSDTLAVPGSATGSLRKRLPSQDDEAEELKMLSPAASPVVAWSDPTSPQGTDDQDRATSTASQNSAIINDRLQELVKLFKERTEKVKEKLIDPDVTSDEESPKPSPAKKAPEPAPEVKPAEAGQVEEEHYCEMLCCKFKRRPWKKYQFPQSIDPLTNLMYILWLFFVVLAWNWNCWLIPVRWAFPYQTPDNIHLWLLMDYLCDLIYLLDITVFQMRLQFVRGGDIITDKKEMRNNYVKSQRFKMDMLCLLPLDLLYLKFGVNPLLRLPRCLKYMAFFEFNNRLESILSKAYVYRVIRTTAYLLYSLHLNSCLYYWASAYEGLGSTHWVYDGVGNSYIRCYYWAVKTLITIGGLPDPRTLFEIVFQGLNYFTGVFAFSVMIGQMRDVVGAATAGQTYYRSCMDSTVKYMNFYKIPRSVQNRVKTWYEYTWHSQGMLDESELMVQLPDKMRLDLAIDVNYSIVSKVALFQGCDRQMIFDMLKRLRSVVYLPNDYVCKKGEIGREMYIIQAGQVQVLGGPDGKSVLVTLKAGSVFGEISLLAVGGGNRRTANVVAHGFTNLFILDKKDLNEILVHYPESQKLLRKKARRMLRNNNKPKEKSVLILPPRAGTPKLFNAALAAAGKMGAKGGRGGRLALLRARLKELAALEAAARQQQLLEQAKSSEDAAVGEEGSASPEQPPRPEPPAPEAPAPEPTAPEPLAPEAPAPEAPAPSSPPPASQERPEGDKDAARPEEHPVRIHVTLGPDPSEQILLVEVPEKQEEKEKKEEETEEKEEGEEARKEKEEE
# What was measured:
# [1] = target: B1; experiment: cryo-EM structure
# [2] = target: the molecule itself; experiment: cryo-EM structure
# [3] = target: bovine calmodulin (bovine, UniProt P62157 1-149); experiment: limited proteolysis-coupled mass spectrometry
binding result [1],binding result [3],Binder,binding result [2]
binds,binds,"CNGA1 subunit of the bovine rod CNG channel (natural protein, UniProt Q00194 1-690, looked up) MKKVIINTWHSFVNIPNVVGPDVEKEITRMENGACSSFSGDDDDSASMFEESETENPHARDSFRSNTHGSGQPSQREQYLPGAIALFNVNNSSNKEQEPKEKKKKKKEKKSKPDDKNENKKDPEKKKKKEKDKDKKKKEEKGKDKKEEEKKEVVVIDPSGNTYYNWLFCITLPVMYNWTMIIARACFDELQSDYLEYWLAFDYLSDVVYLLDMFVRTRTGYLEQGLLVKEERKLIDKYKSTFQFKLDVLSVIPTDLLYIKFGWNYPEIRLNRLLRISRMFEFFQRTETRTNYPNIFRISNLVMYIIIIIHWNACVYFSISKAIGFGNDTWVYPDVNDPDFGRLARKYVYSLYWSTLTLTTIGETPPPVRDSEYFFVVADFLIGVLIFATIVGNIGSMISNMNAARAEFQARIDAIKQYMHFRNVSKDMEKRVIKWFDYLWTNKKTVDEREVLKYLPDKLRAEIAINVHLDTLKKVRIFADCEAGLLVELVLKLQPQVYSPGDYICKKGDIGREMYIIKEGKLAVVADDGITQFVVLSDGSYFGEISILNIKGSKAGNRRTANIKSIGYSDLFCLSKDDLMEALTEYPDAKGMLEEKGKQILMKDGLLDINIANAGSDPKDLEEKVTRMESSVDLLQTRFARILAEYESMQQKLKQRLTKVEKFLKPLIDTEFSAIEGSGTESGPTDSTQD",binds
,binds,B1,
